The target in the assay is individual catalytic domain of human MT1-MMP (MT1-CAT) (human, UniProt P50281 114-287, biotin (EZ-Link sulfo-NHS-LC-biotin, 1:20 enzyme-biotin molar ratio) in the Fab binding ELISA only; unlabelled in the competition ELISA and the cleavage assays). The experiment in a line: ELISA. (In general: In an ELISA, binding on a coated surface is turned into a signal by an enzyme label.)

B1: 2B5 Fab (Fab, V domains shown)
VH: EVQLVESGGGLVQPGGSLRLSCAASGFNLSYSSMHWVRQAPGKGLEWVASIYPYSGYTYYADSVKGRFTISADTSKNTAYLQMNSLRAEDTAVYYCARIGVNAWAVKMSQRMLATRGSGWYVMDYWGQGTLVTVSS
VL: DIQMTQSPSSLSASVGDRVTITCRASQSVSSAVAWYQQKPGKAPKLLIYSASSLYSGVPSRFSGSRSGTDFTLTISSLQPEDFATYYCQQSSSYPYSPITFGQGTKVEIK
With B1, the Kd came out at 21 nM.

B2: 3E9 Fab (Fab, V domains shown)
VH: EVQLVESGGGLVQPGGSLRLSCAASGFNLYYSSMHWVRQAPGKGLEWVASIYPSYGSTYYADSVKGRFTISADTSKNTAYLQMNSLRAEDTAVYYCARNGRYPGFLKRAHKRLLNFKAYVMDYWGQGTLVTVSS
VL: DIQMTQSPSSLSASVGDRVTITCRASQSVSSAVAWYQQKPGKAPKLLIYSASSLYSGVPSRFSGSRSGTDFTLTISSLQPEDFATYYCQQGSWYLITFGQGTKVEIK
Regarding B2, the Kd was 45 nM.

What is called Kd is the concentration at which binding is half-saturated.

(Values after PMC5356841 (2016).)
